Experimental data published in paper PMC11832421, “Structural basis for the inhibition of PRC2 by active transcription histone posttranslational modifications” (Nature Structural & Molecular Biology, 2025).

B1: JARID2 1–450 with K116me3 (within PRC2AJ1–450) (domain or fragment, UniProt Q92833 1-450, looked up)
chain: MSKERPKRNIIQKKYDDSDGIPWSEERVVRKVLYLSLKEFKNSQKRQHAEGIAGSLKTVNGLLGNDQSKGLGPASEQSENEKDDASQVSSTSNDVSSSDFEEGPSRKRPRLQAQRKFAQSQPNSPSTTPVKIVEPLLPPPATQISDLSKRKPKTEDFLTFLCLRGSPALPNSMVYFGSSQDEEEVEEEDDETEDVKTATNNASSSCQSTPRKGKTHKHVHNGHVFNGSSRSTREKEPVQKHKSKEATPAKEKHSDHRADSRREQASANHPAAAPSTGSSAKGLAATHHHPPLHRSAQDLRKQVSKVNGVTRMSSLGAGVTSAKKMREVRPSPSKTVKYTATVTKGAVTYTKAKRELVKDTKPNHHKPSSAVNHTISGKTESSNAKTRKQVLSLGGASKSTGPAVNGLKVSGRLNPKSCTKEVGGRQLREGLQLREGLRNSKRRLEEAHQA
modifications: trimethyl-lysine at K116 (JARID2 K116me3)
notes: JARID2 residues 1–450; Stood in the assay as a subunit of m1; also called JARID2 K116me3; methylated JARID2; source: Sf9 insect cells (baculovirus), purified as part of the PRC2 complex
B2: EED (core subunit, within the PRC2 complexes) (natural protein)
chain: not shown
notes: EED; Stood in the assay as a subunit of m1 or m2; source: Sf9 insect cells (baculovirus), purified as part of the PRC2 complex

Key:
[1] = target: T1, EZH2 (catalytic subunit, within the PRC2 complexes) (UniProt Q15910 1-746); experiment: cryo-EM structure; 100 nM nucleosome (biotinylated DNA, held on streptavidin affinity grids) with 500 nM PRC2 in 50 mM HEPES pH 7.5, 50 mM KCl, 0.5 mM TCEP, 100 µM S-adenosyl homocysteine; 3–5 min at room temperature; details: both partners purified
T1 construct: EZH2; Stood in the assay as a subunit of m1 or m2; source: Sf9 insect cells (baculovirus), purified as part of the PRC2 complex

[2] = target: B1; experiment: as above; details: both partners purified

T1 sequence (Q15910 whole entry, one chain of several): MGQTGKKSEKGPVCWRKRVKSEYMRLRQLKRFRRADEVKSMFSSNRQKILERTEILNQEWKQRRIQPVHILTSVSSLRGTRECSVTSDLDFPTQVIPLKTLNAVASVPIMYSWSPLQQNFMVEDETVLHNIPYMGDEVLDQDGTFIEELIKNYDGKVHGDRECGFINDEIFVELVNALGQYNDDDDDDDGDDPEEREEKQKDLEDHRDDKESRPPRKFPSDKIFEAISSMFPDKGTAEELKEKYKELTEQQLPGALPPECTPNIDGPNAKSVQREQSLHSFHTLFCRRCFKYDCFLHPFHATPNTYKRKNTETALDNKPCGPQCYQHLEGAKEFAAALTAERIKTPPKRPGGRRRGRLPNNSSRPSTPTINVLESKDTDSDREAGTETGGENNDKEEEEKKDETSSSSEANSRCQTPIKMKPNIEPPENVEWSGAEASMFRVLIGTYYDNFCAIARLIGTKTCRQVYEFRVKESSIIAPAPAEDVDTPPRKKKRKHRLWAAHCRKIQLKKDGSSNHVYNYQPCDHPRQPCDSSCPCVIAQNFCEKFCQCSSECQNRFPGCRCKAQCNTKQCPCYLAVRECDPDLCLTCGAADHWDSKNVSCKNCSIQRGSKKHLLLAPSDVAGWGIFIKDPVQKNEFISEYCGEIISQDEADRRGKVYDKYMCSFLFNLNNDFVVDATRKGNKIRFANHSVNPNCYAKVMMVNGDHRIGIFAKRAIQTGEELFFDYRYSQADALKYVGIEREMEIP

| Binder | binding result [1] | binding result [2] |
| --- | --- | --- |
| B1 | binds | – |
| B2 | – | binds |
